The assay addresses T1, Calcium Sensing Receptor, C-terminal Citrine fusion (UniProt P41180 20-1078).
T1 construct: Calcium Sensing Receptor (CaSR); cDNA cloned without its stop codon between HindIII and Not1 of pcDNA3.1-Citrine; Acceptor of the FRET pair; it says only that the cDNA was cloned excluding the stop codon; also called CaSR; CaSR-citrine; source: COS-7, transfected by electroporation (pcDNA3.1), in fixed cells; not shown: Citrine, C-terminal, kept
T1 sequence (looked up): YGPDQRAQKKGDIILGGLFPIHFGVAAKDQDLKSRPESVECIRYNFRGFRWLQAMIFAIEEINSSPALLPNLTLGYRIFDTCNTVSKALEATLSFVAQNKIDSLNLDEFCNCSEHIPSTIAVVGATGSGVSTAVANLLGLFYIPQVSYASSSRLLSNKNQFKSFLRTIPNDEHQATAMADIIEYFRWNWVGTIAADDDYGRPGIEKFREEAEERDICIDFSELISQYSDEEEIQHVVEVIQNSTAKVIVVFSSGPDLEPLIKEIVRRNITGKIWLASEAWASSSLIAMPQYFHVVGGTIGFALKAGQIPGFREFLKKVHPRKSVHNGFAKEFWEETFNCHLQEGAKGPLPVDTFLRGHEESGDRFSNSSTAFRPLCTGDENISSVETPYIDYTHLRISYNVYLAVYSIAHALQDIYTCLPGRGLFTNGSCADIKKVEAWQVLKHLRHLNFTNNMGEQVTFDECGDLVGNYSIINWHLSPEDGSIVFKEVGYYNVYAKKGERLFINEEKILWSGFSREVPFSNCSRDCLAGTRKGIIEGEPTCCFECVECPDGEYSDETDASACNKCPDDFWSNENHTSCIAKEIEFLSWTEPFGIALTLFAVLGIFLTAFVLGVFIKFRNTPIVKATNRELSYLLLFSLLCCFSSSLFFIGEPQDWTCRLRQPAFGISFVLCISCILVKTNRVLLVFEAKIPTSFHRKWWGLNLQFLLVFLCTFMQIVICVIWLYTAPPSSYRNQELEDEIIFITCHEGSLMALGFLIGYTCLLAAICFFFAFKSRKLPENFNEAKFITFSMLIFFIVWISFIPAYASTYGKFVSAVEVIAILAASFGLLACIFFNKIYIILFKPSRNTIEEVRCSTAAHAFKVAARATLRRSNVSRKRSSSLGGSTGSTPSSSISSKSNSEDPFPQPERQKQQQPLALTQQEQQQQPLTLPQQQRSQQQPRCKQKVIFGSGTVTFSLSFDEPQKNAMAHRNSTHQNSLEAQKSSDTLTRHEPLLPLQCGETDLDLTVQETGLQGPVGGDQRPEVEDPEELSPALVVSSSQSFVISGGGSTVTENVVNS
The assay can be described thus: FRET or BRET; sensitized-emission FRET (NFRET, PixFRET) and FRET-based stoichiometry in cell-surface regions of interest (50-pixel dots) of fixed COS-7 cells co-transfected with CaSR-Citrine (acceptor) and RAMP-Cerulean (donor); confocal microscopy at room temperature; NFRET as percent of a Cerulean-linker-Citrine positive control; negative control Citrine alone + RAMP-Cerulean. As to conditions: partners not purified.

B1: Receptor Activity Modifying Protein 3, C-terminal Cerulean fusion (natural protein, UniProt O60896 24-148, looked up)
chain: RAGGCNETGMLERLPLCGKAFADMMGKVDVWKWCNLSEFIVYYESFTNCTEMEANVVGCYWPNPLAQGFITGIHRQFFSNCTVDRVHLEDPPDEVLIPLIVIPVVLTVAMAGLVVWRSKRTDTLL
notes: Receptor Activity Modifying Protein 3 (RAMP3); cDNA cloned without its stop codon between Kpn1 and Not1 of pcDNA3.1-Cerulean; Donor of the FRET pair; also called RAMP3; RAMP3-Cer; source: COS-7, transfected by electroporation (pcDNA3.1), in fixed cells; not shown: Cerulean, C-terminal, kept
As for B1, the “stoichiometry N” value was 1.5 CaSR:RAMP.

B2: Receptor Activity Modifying Protein 1, C-terminal Cerulean fusion (natural protein, UniProt O60894 27-148, looked up)
chain: CQEANYGALLRELCLTQFQVDMEAVGETLWCDWGRTIRSYRELADCTWHMAEKLGCFWPNAEVDRFFLAVHGRYFRSCPISGRAVRDPPGSILYPFIVVPITVTLLVTALVVWQSKRTEGIV
notes: Receptor Activity Modifying Protein 1 (RAMP1); cDNA cloned without its stop codon between Kpn1 and Not1 of pcDNA3.1-Cerulean; Donor of the FRET pair; also called RAMP1; RAMP1-Cer; source: COS-7, transfected by electroporation (pcDNA3.1), in fixed cells; not shown: Cerulean, C-terminal, kept
B2: the “stoichiometry N” value is 2.19 CaSR:RAMP.
